Residue numbers refer to the chain shown, from its start.
Columns and labels:
[1] = molecular target: T1, complement C5 (full length) (Homo sapiens, UniProt P01031); test: filter; dot blot, no binding; conditions: tags: Quidel / Complement Technologies A120.14 / Advanced Research Technologies
[2] = molecular target: T1, complement C5 (full length); test: filter; among 11 best clones in 500 nM screen; Kd not given; conditions: tags: Quidel / Complement Technologies A120.14 / Advanced Research Technologies
Experimental: (§1) Doped reselection data. Both the normal and high salt selections were enriched after 5 rounds over the naïve pool. At round 5 the pool Kd was approximately 165 nM for the high salt selection and 175 nM for the normal salt selection. The extent of binding was about 20% at the plateau in both. The R4 pools were cloned using TOPO TA cloning kit (Invitrogen, Carlsbad, Calif.), and 48 clones from each pool were sequenced. 12 clones from each pool were transcribed and assayed in a single point dot blot assay at 500 nM C5. Dissociation constants (Kds) were again measured using the dot blot assay previously described. Kds were estimated for the 11 best clones identified in the single point screen, by fitting the data to the equation: fraction RNA bound=amplitude*Kd/(Kd+[C5]). The clones with the three best Kds were SEQ ID NO: 91 (73 nM), SEQ ID NO: 96 (84 nM) and SEQ ID NO: 95 (92 nM). The sequences for these 11 clones are listed below in Table 5.

[3] = molecular target: T1, complement C5 (full length); test: filter; dot blot, DPBS; conditions: tags: Quidel / Complement Technologies A120.14 / Advanced Research Technologies
Experimental: (§2) The selection progress was monitored using a sandwich filter binding (dot blot) assay. The 5′-³²P-labeled pool RNA (trace concentration) was incubated with C5, 1×DPBS plus 0.1 mg/mL tRNA and 0.1 mg/mL salmon sperm DNA, for 30 minutes at room temperature, and then applied to a nitrocellulose and nylon filter sandwich in a dot blot apparatus (Schleicher and Schuell). The percentage of pool RNA bound to the nitrocellulose was calculated and monitored approximately every 3 rounds with a single point screen (+/−300 nM C5). Pool Kd measurements were measured using a titration of protein and the dot blot apparatus as described above.
as §1, with “Kds were estimated for the 11 best clones identified in the single point screen, by fitting the data to the equation: fraction RNA bound=amplitude*Kd/(Kd+[C5]). The clones with the three best Kds were SEQ ID NO: 91 (73 nM), SEQ ID NO: 96 (84 nM) and SEQ ID NO: 95 (92 nM). The sequences for these 11 clones are listed below in Table 5.” left out

C5a des Arg = C5a des Arg (Homo sapiens, UniProt P01031 P01031:678-750); test: filter; printed >>3 uM; PBS, 1 mM MgCl2, BSA, tRNA, 25 or 37 C; conditions: tags: Complement Technologies A145.6; label: 5'-32P; stem-loop
Chain of C5a des Arg (P01031 678-750, one chain of several): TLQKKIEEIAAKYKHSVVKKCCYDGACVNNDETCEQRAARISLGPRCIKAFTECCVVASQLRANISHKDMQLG
Experimental: (§3) The specificity of ARC186 (SEQ ID NO: 4) for C5 was also assessed in nitrocellulose filtration assays by comparison with complement components both upstream and downstream from C5 in the complement cascade. Purified human proteins and protein complexes were purchased from Complement Technologies (Iyler, Tex.) including: C1q (cat. # A099.18; 2.3 μM), C3 (cat. # A113c.8; 27 μM, C5 (cat. # A120.14; 5.4 μM), C5a des Arg (cat. # A145.6; 60 μM), sC5b-9 (cat. # A127.6; 1 μM), factor B (cat. # A135.12; 11 μM) and factor H (cat #A137.13P; 6.8 μM). Binding reactions were established by performing serial dilutions of protein in PBS plus 1 mM MgCl₂, 0.02 mg (mL BSA and 0.002 mg/mL tRNA, incubating for 14 hours at 25° C. or 37° C., and then applied to the nitrocellulose filtration apparatus as described above. Dissociation constants KD were determined from semi-log plots of % nitrocellulose binding versus [C5] by a fit of the data to the equation: % nitrocellulose binding=amplitude×[C5]/(KD+[C5]).

complement C1q = complement C1q (Homo sapiens, UniProt P02745;P02746;P02747 P02745:23-245,P02746:28-253,P02747:29-245); test: filter; PBS, 1 mM MgCl2, BSA, tRNA; conditions: tags: Complement Technologies A099.18; chain copies: 6; label: 5'-32P; stem-loop
Chain of complement C1q (P02745 23-245, chain 1 of 3): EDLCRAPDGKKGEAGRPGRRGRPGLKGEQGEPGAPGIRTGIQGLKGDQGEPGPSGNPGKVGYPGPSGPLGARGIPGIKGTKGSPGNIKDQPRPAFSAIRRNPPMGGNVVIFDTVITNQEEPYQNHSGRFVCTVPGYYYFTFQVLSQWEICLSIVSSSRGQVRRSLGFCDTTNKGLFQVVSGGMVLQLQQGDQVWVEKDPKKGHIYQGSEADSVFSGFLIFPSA
Chain of complement C1q (P02746 28-253, chain 2 of 3): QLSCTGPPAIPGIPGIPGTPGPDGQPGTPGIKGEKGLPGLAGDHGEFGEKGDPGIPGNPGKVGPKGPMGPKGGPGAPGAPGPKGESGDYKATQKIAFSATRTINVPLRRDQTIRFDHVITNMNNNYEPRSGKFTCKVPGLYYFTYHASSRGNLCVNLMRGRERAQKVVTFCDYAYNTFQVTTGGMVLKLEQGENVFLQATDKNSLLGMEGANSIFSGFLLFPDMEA
Chain of complement C1q (P02747 29-245, chain 3 of 3): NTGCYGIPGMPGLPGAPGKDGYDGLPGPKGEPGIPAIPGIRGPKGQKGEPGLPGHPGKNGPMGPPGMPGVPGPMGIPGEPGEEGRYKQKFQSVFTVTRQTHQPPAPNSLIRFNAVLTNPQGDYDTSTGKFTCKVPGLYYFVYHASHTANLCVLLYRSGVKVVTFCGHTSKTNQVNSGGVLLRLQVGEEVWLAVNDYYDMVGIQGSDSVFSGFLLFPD
Experimental: as §3

sC5b-9 complex = sC5b-9 complex (Homo sapiens, UniProt P01031;P01031;P13671;P10643;P07357;P07358;P07360;P02748;P04004 …); test: filter; PBS, 1 mM MgCl2, BSA, tRNA, 25 or 37 C; conditions: tags: Complement Technologies A127.6; label: 5'-32P; stem-loop
Experimental: as §3

[4] = molecular target: complement C5 in human serum/blood (Homo sapiens, UniProt P01031); test: inhibition; CH50 hemolysis, 0.2% human serum, 37 C; conditions: protein: extract; label: 5'-32P; stem-loop
Chain of complement C5 in human serum/blood (P01031 whole entry): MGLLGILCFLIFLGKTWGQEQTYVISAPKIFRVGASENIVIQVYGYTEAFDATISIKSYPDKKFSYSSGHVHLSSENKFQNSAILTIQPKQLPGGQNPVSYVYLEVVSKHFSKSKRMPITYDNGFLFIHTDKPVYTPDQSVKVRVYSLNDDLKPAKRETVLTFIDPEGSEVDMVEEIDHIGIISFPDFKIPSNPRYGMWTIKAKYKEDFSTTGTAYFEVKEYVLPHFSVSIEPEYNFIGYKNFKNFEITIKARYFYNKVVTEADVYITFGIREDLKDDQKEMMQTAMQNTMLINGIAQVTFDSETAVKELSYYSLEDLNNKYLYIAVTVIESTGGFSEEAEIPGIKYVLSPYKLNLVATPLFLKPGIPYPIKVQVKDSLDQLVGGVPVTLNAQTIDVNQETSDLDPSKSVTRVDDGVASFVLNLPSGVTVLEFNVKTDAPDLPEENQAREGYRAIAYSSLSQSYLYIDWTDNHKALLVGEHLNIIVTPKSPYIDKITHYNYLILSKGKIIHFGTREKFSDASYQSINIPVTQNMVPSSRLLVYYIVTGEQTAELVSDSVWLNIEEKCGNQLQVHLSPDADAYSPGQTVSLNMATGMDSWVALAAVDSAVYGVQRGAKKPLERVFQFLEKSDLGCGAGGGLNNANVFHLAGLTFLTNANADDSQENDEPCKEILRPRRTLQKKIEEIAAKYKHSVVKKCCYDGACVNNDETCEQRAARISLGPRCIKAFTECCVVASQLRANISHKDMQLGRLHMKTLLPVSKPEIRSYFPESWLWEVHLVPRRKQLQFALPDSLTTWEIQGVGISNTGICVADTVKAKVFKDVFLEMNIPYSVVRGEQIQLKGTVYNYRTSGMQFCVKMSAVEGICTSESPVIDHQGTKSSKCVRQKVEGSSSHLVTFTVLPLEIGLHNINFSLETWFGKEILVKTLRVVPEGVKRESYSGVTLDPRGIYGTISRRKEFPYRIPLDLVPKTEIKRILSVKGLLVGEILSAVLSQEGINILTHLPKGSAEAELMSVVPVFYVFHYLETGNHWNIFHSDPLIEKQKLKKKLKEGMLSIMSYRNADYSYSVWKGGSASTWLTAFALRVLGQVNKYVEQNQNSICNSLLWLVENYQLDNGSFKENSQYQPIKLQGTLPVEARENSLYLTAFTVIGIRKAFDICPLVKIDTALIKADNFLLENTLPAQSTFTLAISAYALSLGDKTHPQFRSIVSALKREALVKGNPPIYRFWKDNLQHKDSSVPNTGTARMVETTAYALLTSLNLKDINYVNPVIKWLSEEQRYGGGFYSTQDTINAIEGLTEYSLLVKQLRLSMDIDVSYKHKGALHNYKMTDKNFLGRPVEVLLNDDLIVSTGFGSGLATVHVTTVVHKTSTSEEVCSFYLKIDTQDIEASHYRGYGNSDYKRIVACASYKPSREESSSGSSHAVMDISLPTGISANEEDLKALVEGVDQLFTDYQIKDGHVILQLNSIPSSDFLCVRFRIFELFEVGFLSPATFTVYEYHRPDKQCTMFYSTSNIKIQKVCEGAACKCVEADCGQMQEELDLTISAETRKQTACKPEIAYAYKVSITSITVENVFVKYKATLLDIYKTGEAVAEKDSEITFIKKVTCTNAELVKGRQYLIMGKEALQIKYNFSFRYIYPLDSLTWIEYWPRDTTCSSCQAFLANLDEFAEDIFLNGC
Excerpt: The CH50 test measures the ability of the complement system in a serum test sample to lyse 50% of cells in a standardized suspension of antibody-coated sheep erythrocytes. A solution of 0.2% human serum was mixed with antibody-coated sheep erythrocytes (Diamedix EZ Complement CH50 Kit, Diamedix Corp., Miami, Fla.) in the presence or absence of various anti-C5 aptamers. The assay was run according to the kit protocol in veronal-buffered saline containing calcium, magnesium and 1% gelatin (GVB⁺⁺ complement buffer) and incubated for 30 minutes at 37° C. After incubation, the samples were centrifuged to pellet intact erythrocytes. The optical density at 412 nm (OD₄₁₂) of the supernatant was read to quantify the release of soluble hemoglobin, which is proportional to the extent of hemolysis (Green et al., (1995) Chem. Biol. 2:683-95). To verify that the aptamers blocked C5 activation, some hemolysis supernatants were analyzed for the presence of C5a and C5b-9 by ELISA (C5b-9 ELISA kit, Quidel, San Diego, Calif.; C5a ELISA kit, BD Biosciences, San Diego, Calif.) following the ELISA kit protocols.

[5] = molecular target: T1, complement C5 (full length); test: filter; PBS, 1 mM MgCl2, 23 C, 4 h; 0.6 nM at 37 C; kinetic estimate 0.07 nM (koff 0.013 /min, kon 0.18 /nM/min); conditions: tags: Quidel / Complement Technologies A120.14 / Advanced Research Technologies; label: 5'-32P; stem-loop
Experimental: The binding reactions were analyzed by nitrocellulose filtration using a Minifold I dot-blot, 96-well vacuum filtration manifold (Schleicher & Schuell, Keene, N.H.). A three-layer filtration medium was used, consisting (from top to bottom) of Protran nitrocellolose (Schleicher & Schuell), Hybond-P nylon (Amersham Biosciences, Piscataway, N.J.) and GB002 gel blot paper (Schleicher & Schuell). The nitrocellulose layer, which selectively binds protein over nucleic acid, preferentially retained the anti-C5 aptamer in complex with a protein ligand, while non-complexed anti-C5 aptamer passed through the nitrocellulose and adhered to the nylon. The gel blot paper was included simply as a supporting medium for the other filters. Following filtration, the filter layers were separated, dried and exposed on a phosphor screen (Amersham Biosciences) and quantified using a Storm 860 Phosphorimager® blot imaging system (Amersham Biosciences).
To analyze the association reaction, the equilibration rate constant (keq) for the formation of C5·ARC186 was measured in the presence of varying concentrations of C5 protein (1-5 nM). Complex formation was initiated by mixing together C5 protein and radiolabeled ARC186 in PBS containing 1 mM MgCl₂ at room temperature (23° C.), and stopped by nitrocellulose filtration partitioning. […]

complement C3 = complement C3 (Homo sapiens, UniProt P01024;P01024 P01024:23-667,P01024:672-1663); test: filter; non-activated C3 essentially does not bind; conditions: tags: Complement Technologies A113c.8; label: 5'-32P; stem-loop
Chain of complement C3 (P01024 23-667, chain 1 of 2): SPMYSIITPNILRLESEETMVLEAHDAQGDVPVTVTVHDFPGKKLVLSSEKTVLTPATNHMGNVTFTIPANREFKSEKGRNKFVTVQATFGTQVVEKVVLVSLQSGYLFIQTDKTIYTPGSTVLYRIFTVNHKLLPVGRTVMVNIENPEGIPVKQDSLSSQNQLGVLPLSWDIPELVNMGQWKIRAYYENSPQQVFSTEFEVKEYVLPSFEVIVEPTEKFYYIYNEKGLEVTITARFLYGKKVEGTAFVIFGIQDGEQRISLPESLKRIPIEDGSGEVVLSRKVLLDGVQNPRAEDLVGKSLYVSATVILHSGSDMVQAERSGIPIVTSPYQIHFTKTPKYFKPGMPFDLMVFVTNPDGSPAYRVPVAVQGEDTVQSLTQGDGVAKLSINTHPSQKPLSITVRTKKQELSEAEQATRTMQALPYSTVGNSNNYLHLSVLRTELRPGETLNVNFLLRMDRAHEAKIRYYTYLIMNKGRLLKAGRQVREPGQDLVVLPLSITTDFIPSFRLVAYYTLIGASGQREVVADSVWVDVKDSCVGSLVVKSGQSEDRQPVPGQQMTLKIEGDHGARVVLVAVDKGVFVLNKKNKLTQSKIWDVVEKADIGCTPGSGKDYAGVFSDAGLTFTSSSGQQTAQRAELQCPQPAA
Chain of complement C3 (P01024 672-1663, chain 2 of 2): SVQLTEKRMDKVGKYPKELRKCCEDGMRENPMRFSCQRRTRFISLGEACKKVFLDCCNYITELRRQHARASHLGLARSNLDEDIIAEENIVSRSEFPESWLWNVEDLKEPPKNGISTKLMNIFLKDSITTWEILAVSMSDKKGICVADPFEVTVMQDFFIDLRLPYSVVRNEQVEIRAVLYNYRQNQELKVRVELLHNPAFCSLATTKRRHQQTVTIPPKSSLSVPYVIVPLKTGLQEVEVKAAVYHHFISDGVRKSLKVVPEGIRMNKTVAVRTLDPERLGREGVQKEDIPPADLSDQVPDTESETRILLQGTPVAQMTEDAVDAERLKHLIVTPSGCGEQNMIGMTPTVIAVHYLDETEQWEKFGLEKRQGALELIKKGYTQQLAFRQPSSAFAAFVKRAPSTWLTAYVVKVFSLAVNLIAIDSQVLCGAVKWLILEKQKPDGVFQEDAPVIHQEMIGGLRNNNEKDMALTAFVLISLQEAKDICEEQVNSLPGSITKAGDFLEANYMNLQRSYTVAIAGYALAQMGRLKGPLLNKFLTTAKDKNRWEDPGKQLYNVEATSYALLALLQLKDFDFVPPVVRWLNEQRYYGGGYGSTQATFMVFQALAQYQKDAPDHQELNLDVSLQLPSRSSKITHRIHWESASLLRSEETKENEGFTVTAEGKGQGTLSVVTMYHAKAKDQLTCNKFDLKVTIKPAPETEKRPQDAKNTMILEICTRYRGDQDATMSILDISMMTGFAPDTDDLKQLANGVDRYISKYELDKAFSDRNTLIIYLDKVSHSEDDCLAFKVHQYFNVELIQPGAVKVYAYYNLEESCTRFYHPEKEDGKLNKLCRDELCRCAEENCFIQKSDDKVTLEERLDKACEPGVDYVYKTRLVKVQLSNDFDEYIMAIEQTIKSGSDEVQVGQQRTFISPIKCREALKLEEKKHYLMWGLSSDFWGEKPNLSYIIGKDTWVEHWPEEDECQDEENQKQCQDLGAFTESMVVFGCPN
Experimental: as §3

[6] = molecular target: T1, complement C5 (full length); test: filter; dot blot; 20% plateau; listing entry for SEQ 81 differs in length, printed sequence used; conditions: tags: Quidel / Complement Technologies A120.14 / Advanced Research Technologies
Experimental: as §2
(§4) Six constructs based on ARC913 (SEQ ID NO: 75) were transcribed, gel purified, and tested in dot blots for binding to C5.

[7] = molecular target: T1, complement C5 (full length); test: filter; dot blot; conditions: tags: Quidel / Complement Technologies A120.14 / Advanced Research Technologies
Experimental: as §2, §4

T1 sequence (P01031 whole entry): as the sequence (P01031 whole entry) above

B1: ARC877 (mixed)
RNA: GGGUUUGGCACAGGCAUACAAACCC
modifications: dRmY: A,G deoxy; C,U 2'-OMe
B1: no binding [1].

B2: doped clone SEQ 88 (mixed)
RNA: GGGAGAGGAGAGAACGUUCUACCUUGGUUUGGCACAGGCAUACAUACGCAGGGGUCGAUCGGUUACGACUAGCAUCGAUG
modifications: dRmY: A,G deoxy; C,U 2'-OMe
B2: binds [2].

B3: doped clone SEQ 93 (mixed)
RNA: B2 RNA with G27U, U29G, G38C, U41A, A42C, A44C, G51C, G54A, A58C, U59C
modifications: dRmY: A,G deoxy; C,U 2'-OMe
B3: binds [2].

B4: doped clone SEQ 89 (mixed)
RNA: B2 RNA with G53U, G61U
modifications: dRmY: A,G deoxy; C,U 2'-OMe
B4: binds [2].

B5: doped clone SEQ 90 (mixed)
RNA: B2 RNA with C43A, G54C
modifications: dRmY: A,G deoxy; C,U 2'-OMe
B5: binds [2].

B6: doped clone SEQ 91 (mixed)
RNA: B2 RNA with A34C, C43U, G54A, C56U, G61C
modifications: dRmY: A,G deoxy; C,U 2'-OMe
With B6 the Kd [3] was 73 nM.

B7: doped clone SEQ 94 (mixed)
RNA: GGGAGAGGAGAGAACGUUCUACCUUGGUUUGGCACAGGCAUACAUACGCAGGUCGAUCGGUUACGACUA
modifications: dRmY: A,G deoxy; C,U 2'-OMe
B7: binds [2].

B8: doped clone SEQ 92 (mixed)
RNA: GGGAGAGGAGAGAACGUUCUACCUUGGUUUGGCGCAGGCAUACAUACGCAGGUCGAUCGGUUACGACUAGCAUCGAUG
modifications: dRmY: A,G deoxy; C,U 2'-OMe
B8: binds [2].

B9: doped clone SEQ 98 (mixed)
RNA: GGGAGAGGAGAGAACGUUCUACCUUGGUUUGGCACAGGCAUAUAUACGCAGGGUCGAUCCGUUACGACUAGCAUCGAUG
modifications: dRmY: A,G deoxy; C,U 2'-OMe
B9: binds [2].

B10: ARC186 (ssRNA)
RNA: CGCCGCGGUCUCAGGCGCUGAGUCUGAGUUUACCUGCG
modifications: 2'-F all C and U; 2'-OMe purines except three 2'-OH purines; 3' inverted dT
B10 was tested, and the Kd (C5a des Arg) was > 3000 nM, the Kd (complement C1q) was > 300 nM and the Kd (sC5b-9 complex) was > 200 nM. The IC50 [4] was 0.5 nM, the Kd [5] was 0.08 nM and the binding result (complement C3) was “no binding”.

B11: ARC954 (mixed)
RNA: CGUUCUACCUUGGUUUGGCACAGGCAUACAUACGCAGGGGUCGAUCG
modifications: dRmY: A,G deoxy; C,U 2'-OMe
In the case of B11, the Kd [6] is reported as 130 nM.

B12: ARC878 (mixed)
RNA: GGCGGCACAGGCAUACAUACGCAGGGGUCGCC
modifications: dRmY: A,G deoxy; C,U 2'-OMe
B12: no binding [1].

B13: doped clone SEQ 95 (mixed)
RNA: GGGAGAGGAGAGAACGUUCUACCUUAGGUUCGCACUGUCAUACAUACACACGGGCAAUCGGUUACGACUAGCAUCGAUG
modifications: dRmY: A,G deoxy; C,U 2'-OMe
In the case of B13, the Kd [3] is reported as 92 nM.

B14: ARC874 (mixed)
RNA: CCUUGGUUUGGCACAGGCAUACAUACGCAGGG
modifications: dRmY: A,G deoxy; C,U 2'-OMe
For B14, the Kd [7] was 1000 nM.

B15: ARC875 (mixed)
RNA: B14 RNA with U24A
modifications: dRmY: A,G deoxy; C,U 2'-OMe
B15: no binding [1].

B16: ARC876 (mixed)
RNA: GGGUUUGGCACAGGCAUACAUACCC
modifications: dRmY: A,G deoxy; C,U 2'-OMe
B16: no binding [1].

B17: doped clone SEQ 97 (mixed)
RNA: GGGAGAGGAGAGAACGUUCUACCUUUCUCUGCCACAAGCAUACCUUCGCGGGGUUCUAUUGGUUACGACUAGCAUCGAUG
modifications: dRmY: A,G deoxy; C,U 2'-OMe
B17: binds [2].

— patent publication US20090269356, “Complement Binding Aptamers and Anti-C5 Agents Useful in the Treatment of Ocular Disorders” (published 2009)
